Data: patent US20100260668A1 (published 2010)

Target: T1, DLL4 ECD His tag (UniProt Q9NR61 27-529, limits assumed)
T1 construct: extracellular domain; also called DLL ECD His tag
Experiment: SPR (Biacore), DVD-Ig captured, DLL4 as analyte

B1: DVD474 (bispecific antibody, human IgG1, kappa)
heavy: not shown
light: DIQMTQSPSSLSASVGDRVTITCRASQVIRRSLAWYQQKPGKAPKLLIYAASNLASGVPSRFSGSGSGTDFTLTISSLQPEDFATYYCQQSNTSPLTFGQGTKVEIKRTVAAPSVFIFPPDIQMTQSPSSLSASVGDRVTITCRASQDVSTAVAWYQQKPGKAPKLLIYSASFLYSGVPSRFSGSGSGTDFTLTISSLQPEDFATTYYCQQSYTGTVTFGQGTKVEIKRTVAAPSVFIFPPSDEQLKSGTASVVCLLNNFYPREAKVQWKVDNALQSGNSQESVTEQDSKDSTYSLSSTLTLSKADYEKHKVYACEVTHQGLSSPVTKSFNRGEC
notes: Outer AB071 (VEGF), inner AB015 (DLL4); HC linker long, LC linker long; also called DVD-Ig DVD474
With B1 the Kd was 1.04 nM.

B2: DVD486 (bispecific antibody, human IgG1, kappa)
heavy: not shown
light: DIQMTQSPSSLSASVGDRVTITCRASQVIRRSLAWYQQKPGKAPKLLIYAASNLASGVPSRFSGSGSGTDFTLTISSLQPEDFATYYCQQSNTSPLTFGQGTKVEIKRTVAAPSVFIFPPDIQMTQSPSSLSASVGDRVTITCRASQDVSTAVAWYQQKPGKAPKLLIYSASFLYSGVPSRFSGSGSGTDFTLTISSLQPEDFATTYYCQQSYTGTVTFGQGTKVEIKRTVAAPSVFIFPPSDEQLKSGTASVVCLLNNFYPREAKVQWKVDNALQSGNSQESVTEQDSKDSTYSLSSTLTLSKADYEKHKVYACEVTHQGLSSPVTKSFNRGEC
notes: Outer AB071 (VEGF), inner AB015 (DLL4); HC linker short, LC linker long; also called DVD-Ig DVD486
With B2 the Kd was 2.13 nM.

B3: DVD480 (bispecific antibody, human IgG1, kappa)
heavy: not shown
light: DIQMTQSPSSLSASVGDRVTITCRASQVIRRSLAWYQQKPGKAPKLLIYAASNLASGVPSRFSGSGSGTDFTLTISSLQPEDFATYYCQQSNTSPLTFGQGTKVEIKRTVAAPDIQMTQSPSSLSASVGDRVTITCRASQDVSTAVAWYQQKPGKAPKLLIYSASFLYSGVPSRFSGSGSGTDFTLTISSLQPEDFATTYYCQQSYTGTVTFGQGTKVEIKRTVAAPSVFIFPPSDEQLKSGTASVVCLLNNFYPREAKVQWKVDNALQSGNSQESVTEQDSKDSTYSLSSTLTLSKADYEKHKVYACEVTHQGLSSPVTKSFNRGEC
notes: Outer AB071 (VEGF), inner AB015 (DLL4); HC linker long, LC linker short; also called DVD-Ig DVD480
With B3 the Kd was 3.38 nM, the koff was 0.000179 s⁻¹ and the kon was 53000 M⁻¹ s⁻¹.

B4: DVD446 (bispecific antibody, human IgG1, kappa)
heavy: not shown
light: DIQMTQSPSSLSASVGDRVTITCRASQVIRRSLAWYQQKPGKAPKLLIYAASNLASGVPSRFSGSGSGTDFTLTISSLQPEDFATYYCQQSNTSPLTFGQGTKVEIKRTVAAPDIVMTQSPDSLAVSLGERATISCRASESVDNYGISFMKWFQQKPGQPPKLLIYAASNQGSGVPDRFSGSGSGTDFTLTISSLQAEDVAVYYCQQSKEVPWTFGGGTKVEIKRTVAAPSVFIFPPSDEQLKSGTASVVCLLNNFYPREAKVQWKVDNALQSGNSQESVTEQDSKDSTYSLSSTLTLSKADYEKHKVYACEVTHQGLSSPVTKSFNRGEC
notes: Outer AB071 (VEGF), inner AB069 (DLL4); HC linker short, LC linker short; also called DVD-Ig DVD446
Binder B4 has a Kd of 5.81 nM, a koff of 0.000169 s⁻¹ and a kon of 29100 M⁻¹ s⁻¹.

B5: DVD458 (bispecific antibody, human IgG1, kappa, L234A L235A)
heavy: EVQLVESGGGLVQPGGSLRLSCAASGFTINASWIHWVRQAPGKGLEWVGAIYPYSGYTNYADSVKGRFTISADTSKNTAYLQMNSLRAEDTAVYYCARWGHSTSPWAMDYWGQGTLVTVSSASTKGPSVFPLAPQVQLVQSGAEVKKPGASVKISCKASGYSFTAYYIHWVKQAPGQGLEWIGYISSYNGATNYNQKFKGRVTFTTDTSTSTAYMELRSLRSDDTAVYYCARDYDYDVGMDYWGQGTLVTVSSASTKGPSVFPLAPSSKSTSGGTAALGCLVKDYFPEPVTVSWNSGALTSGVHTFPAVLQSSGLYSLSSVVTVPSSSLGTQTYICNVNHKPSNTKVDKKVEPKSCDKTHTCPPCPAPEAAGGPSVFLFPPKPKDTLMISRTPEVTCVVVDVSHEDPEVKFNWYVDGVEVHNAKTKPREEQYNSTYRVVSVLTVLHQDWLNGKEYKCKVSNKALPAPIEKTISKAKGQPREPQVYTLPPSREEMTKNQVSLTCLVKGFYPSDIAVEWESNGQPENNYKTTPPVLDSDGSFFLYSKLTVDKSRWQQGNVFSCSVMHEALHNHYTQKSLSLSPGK
light: DIQMTQSPSSLSASVGDRVTITCRASQVIRRSLAWYQQKPGKAPKLLIYAASNLASGVPSRFSGSGSGTDFTLTISSLQPEDFATYYCQQSNTSPLTFGQGTKVEIKRTVAAPDIVMTQSPDSLAVSLGERATISCRASESVDNYGISFMKWFQQKPGQPPKLLIYAASNQGSGVPDRFSGSGSGTDFTLTISSLQAEDVAVYYCQQSKEVPWTFGGGTKVEIKRTVAAPSVFIFPPSDEQLKSGTASVVCLLNNFYPREAKVQWKVDNALQSGNSQESVTEQDSKDSTYSLSSTLTLSKADYEKHKVYACEVTHQGLSSPVTKSFNRGEC
notes: Outer AB071 (VEGF), inner AB069 (DLL4); HC linker long, LC linker short; also called DVD-Ig DVD458
In the case of B5, the Kd is reported as 16.2 nM, the koff is reported as 0.000261 s⁻¹ and the kon is reported as 16100 M⁻¹ s⁻¹.

B6: DVD452 (bispecific antibody, human IgG1, kappa, L234A L235A)
heavy: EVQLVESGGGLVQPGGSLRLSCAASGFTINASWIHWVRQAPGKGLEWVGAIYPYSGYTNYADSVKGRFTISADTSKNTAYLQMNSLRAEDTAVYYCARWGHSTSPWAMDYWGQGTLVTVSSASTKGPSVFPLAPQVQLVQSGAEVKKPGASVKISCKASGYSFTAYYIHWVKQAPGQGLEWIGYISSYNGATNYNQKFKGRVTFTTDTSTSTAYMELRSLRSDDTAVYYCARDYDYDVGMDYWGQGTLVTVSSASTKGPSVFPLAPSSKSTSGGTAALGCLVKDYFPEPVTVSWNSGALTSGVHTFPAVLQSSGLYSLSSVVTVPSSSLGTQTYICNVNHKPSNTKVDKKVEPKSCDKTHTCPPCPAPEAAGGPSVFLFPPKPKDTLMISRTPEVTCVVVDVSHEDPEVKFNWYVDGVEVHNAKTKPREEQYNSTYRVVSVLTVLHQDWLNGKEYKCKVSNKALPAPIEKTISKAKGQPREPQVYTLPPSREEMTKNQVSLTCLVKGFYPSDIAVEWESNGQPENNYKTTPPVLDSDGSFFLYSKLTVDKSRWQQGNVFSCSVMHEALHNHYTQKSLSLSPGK
light: DIQMTQSPSSLSASVGDRVTITCRASQVIRRSLAWYQQKPGKAPKLLIYAASNLASGVPSRFSGSGSGTDFTLTISSLQPEDFATYYCQQSNTSPLTFGQGTKVEIKRTVAAPSVFIFPPDIVMTQSPDSLAVSLGERATISCRASESVDNYGISFMKWFQQKPGQPPKLLIYAASNQGSGVPDRFSGSGSGTDFTLTISSLQAEDVAVYYCQQSKEVPWTFGGGTKVEIKRTVAAPSVFIFPPSDEQLKSGTASVVCLLNNFYPREAKVQWKVDNALQSGNSQESVTEQDSKDSTYSLSSTLTLSKADYEKHKVYACEVTHQGLSSPVTKSFNRGEC
notes: Outer AB071 (VEGF), inner AB069 (DLL4); HC linker long, LC linker long; also called DVD-Ig DVD452
B6 gave a Kd of 9.3 nM, a koff of 0.00022 s⁻¹ and a kon of 23700 M⁻¹ s⁻¹.
